Measured values taken from patent publication US20200087373A1 (UNIVERSITY OF COPENHAGEN, published 2020).
Ends that are not written are not given here. * marks the point of attachment. C16 diacid = O=C(O)CCCCCCCCCCCCCCC(=O)*

Experiments:
human GIP receptor [1] = biological target: T1, human GIP receptor (human, UniProt P48546 22-466); assay: cell-based or functional assay
T1 sequence (looked up): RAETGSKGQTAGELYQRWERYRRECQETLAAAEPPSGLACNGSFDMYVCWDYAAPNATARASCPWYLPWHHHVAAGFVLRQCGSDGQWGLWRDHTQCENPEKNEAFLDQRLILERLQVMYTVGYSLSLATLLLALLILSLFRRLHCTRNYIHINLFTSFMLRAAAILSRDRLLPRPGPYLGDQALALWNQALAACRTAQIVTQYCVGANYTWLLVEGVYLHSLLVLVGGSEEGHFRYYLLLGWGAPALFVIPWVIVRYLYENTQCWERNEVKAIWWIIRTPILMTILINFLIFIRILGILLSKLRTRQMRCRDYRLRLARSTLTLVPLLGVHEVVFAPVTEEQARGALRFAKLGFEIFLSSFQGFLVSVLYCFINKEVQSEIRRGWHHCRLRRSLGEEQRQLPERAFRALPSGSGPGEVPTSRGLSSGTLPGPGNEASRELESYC

human GIP receptor [2] = biological target: T1, human GIP receptor; assay: 125I-hGIP(1-42) competition binding, COS-7 cells expressing human GIPR, with 2% HSA;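 note: nonspecific signal taken as radioligand bound to untransfected cells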
Experimental: (§1) After incubation, the cells were washed twice in ice-cold binding buffer (+/−2% HSA) and lysed using 200 mM NaOH with 1% SDS for 30 min. Nonspecific binding was determined as the binding of radioactive ligand to untransfected cells.

human GIP receptor [3] = biological target: T1, human GIP receptor; assay: 125I-hGIP(1-42) competition binding, COS-7 cells expressing human GIPR, without HSA;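 note: nonspecific binding defined as radioligand bound to cells lacking the transfected receptor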
Experimental: as §1

human GIP receptor [4] = biological target: T1, human GIP receptor; assay: ratio of Ki with 2% HSA to Ki without HSA, 125I-hGIP competition binding on hGIPR COS-7 cells;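 note: nonspecific binding was defined as radioligand signal on cells lacking the receptor transfection, with cell lysates measured after washes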
Experimental: as §1

Binder	cAMP accumulation Fold (fold change from GIP(5-30)NH2) (human GIP receptor [1]) [fold]	cAMP accumulation IC50 (human GIP receptor [1]) [nM]	cAMP accumulation logIC50 (human GIP receptor [1])	Ki (human GIP receptor [2]) [nM]	Ki (human GIP receptor [3]) [nM]	Fold (Ki + HSA / Ki - HSA) (human GIP receptor [4]) [fold]
TFISDYSIAMDKIHQQDFVK(C16 diacid)WLLAQK-NH2 (N-terminus assumed; SMILES CC[C@H](C)[C@H](NC(=O)[C@H](CO)NC(=O)[C@H](Cc1ccc(O)cc1)NC(=O)[C@H](CC(=O)O)NC(=O)[C@H](CO)NC(=O)[C@@H](NC(=O)[C@H](Cc1ccccc1)NC(=O)[C@@H](N)[C@@H](C)O)[C@@H](C)CC)C(=O)N[C@@H](C)C(=O)N[C@@H](CCSC)C(=O)N[C@@H](CC(=O)O)C(=O)N[C@@H](CCCCN)C(=O)N[C@H](C(=O)N[C@@H](Cc1c[nH]cn1)C(=O)N[C@@H](CCC(N)=O)C(=O)N[C@@H](CCC(N)=O)C(=O)N[C@@H](CC(=O)O)C(=O)N[C@@H](Cc1ccccc1)C(=O)N[C@H](C(=O)N[C@@H](CCCCNC(=O)CCCCCCCCCCCCCCC(=O)O)C(=O)N[C@@H](Cc1c[nH]c2ccccc12)C(=O)N[C@@H](CC(C)C)C(=O)N[C@@H](CC(C)C)C(=O)N[C@@H](C)C(=O)N[C@@H](CCC(N)=O)C(=O)N[C@@H](CCCCN)C(N)=O)C(C)C)[C@@H](C)CC) [AT184 [hGIP(5-30)NH2[N24K]-C16diacid/24]]	3.9	107	-6.97 log(M)	871	224	3.9
TFISDYSIAMDKIHQQDFVNWK(C16 diacid)LAQK-NH2 (N-terminus assumed; SMILES CC[C@H](C)[C@H](NC(=O)[C@H](CO)NC(=O)[C@H](Cc1ccc(O)cc1)NC(=O)[C@H](CC(=O)O)NC(=O)[C@H](CO)NC(=O)[C@@H](NC(=O)[C@H](Cc1ccccc1)NC(=O)[C@@H](N)[C@@H](C)O)[C@@H](C)CC)C(=O)N[C@@H](C)C(=O)N[C@@H](CCSC)C(=O)N[C@@H](CC(=O)O)C(=O)N[C@@H](CCCCN)C(=O)N[C@H](C(=O)N[C@@H](Cc1c[nH]cn1)C(=O)N[C@@H](CCC(N)=O)C(=O)N[C@@H](CCC(N)=O)C(=O)N[C@@H](CC(=O)O)C(=O)N[C@@H](Cc1ccccc1)C(=O)N[C@H](C(=O)N[C@@H](CC(N)=O)C(=O)N[C@@H](Cc1c[nH]c2ccccc12)C(=O)N[C@@H](CCCCNC(=O)CCCCCCCCCCCCCCC(=O)O)C(=O)N[C@@H](CC(C)C)C(=O)N[C@@H](C)C(=O)N[C@@H](CCC(N)=O)C(=O)N[C@@H](CCCCN)C(N)=O)C(C)C)[C@@H](C)CC) [AT186 [hGIP(5-30)NH2[L26K]-C16diacid/26]]	2.6	70.8	-7.15 log(M)	830	105	7.9
TFISDYSIAMDKIHQQDFVNK(C16 diacid)LLAQK-NH2 (N-terminus assumed; SMILES CC[C@H](C)[C@H](NC(=O)[C@H](CO)NC(=O)[C@H](Cc1ccc(O)cc1)NC(=O)[C@H](CC(=O)O)NC(=O)[C@H](CO)NC(=O)[C@@H](NC(=O)[C@H](Cc1ccccc1)NC(=O)[C@@H](N)[C@@H](C)O)[C@@H](C)CC)C(=O)N[C@@H](C)C(=O)N[C@@H](CCSC)C(=O)N[C@@H](CC(=O)O)C(=O)N[C@@H](CCCCN)C(=O)N[C@H](C(=O)N[C@@H](Cc1c[nH]cn1)C(=O)N[C@@H](CCC(N)=O)C(=O)N[C@@H](CCC(N)=O)C(=O)N[C@@H](CC(=O)O)C(=O)N[C@@H](Cc1ccccc1)C(=O)N[C@H](C(=O)N[C@@H](CC(N)=O)C(=O)N[C@@H](CCCCNC(=O)CCCCCCCCCCCCCCC(=O)O)C(=O)N[C@@H](CC(C)C)C(=O)N[C@@H](CC(C)C)C(=O)N[C@@H](C)C(=O)N[C@@H](CCC(N)=O)C(=O)N[C@@H](CCCCN)C(N)=O)C(C)C)[C@@H](C)CC) [AT185 [hGIP(5-30)NH2[W25K]-C16diacid/25]]	2.4	66.1	-7.18 log(M)	336	67.1	5
